This data set in a line: protease stability score; higher = more stable; yeast display proteolysis, trypsin and chymotrypsin.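 Further: log10 excess protease needed over predicted unfolded state with 0 meaning unfolded.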
In the case of “DEEEKAREYNKTIRQVWHDNNEEDMMRLADENARLEYGDKQLHGRENFRKRQHDIHRRVDKVDVDVKRVEVHNGKFKAQFTFTLVSNGENNKRLYILVAQLHGDKFRIKQIVEQ”, the protease stability score came to 0.099.

“DEEEKKKKAEHAAKAFVTGDEERMNQLASPDVTATVGDQRVHGRDDMNKLLQEFKRQADHVELKSFRNDENHVTIHVRVNHNGKMDKFVVNIRMHNGQVKIIHQTSS”: the protease stability score was -0.289.

The sequence “DEEEKKRQQEEIERLLHTGDHDRFSELMDKDVKMDVGEDRVHGRENVAKHLADEMKRIDHVNVQSVDVKGEKFDFSAQFRVNGQTVQRVIIMVQKNGKWKELSITVTDDDQLKRVES” had a protease stability score of 0.092.

For “DEEELDNAKEMVKALLHGNPDRAKQLADPNAHYHVGDKKVHGNDNWAKLVRKERQELRVKIDRVDIKSKGNKVSVDIDVVHDHNGQPQKRNYRLHVEIHNGKVRNVKIQHDG”, the protease stability score amounted to 0.066.

In turn, “DEEELDRLQKQLERNDWETFVRQADENVKVKYGDRSLHGHEDFNKYMKRLHDQVDHYQLNRVTNHGDHLQARVVFRFNGQNIDMTFEVRVHNGRIQEVVFHFTDPRTHKQFKENMD” showed a protease stability score of 1.42.

Sequence “DEEELEKINQLIKTNDFQQLRQDADPNVQVEYGDKSYHGRENLTKNMREFEKMVDHVQLKDYRVKGEKLEADMVATVNGREIRFTLSMNVHNGKIKQISLKYRNEDQKRRMEEALN” displayed a protease stability score of 0.922.

“DEEELEKMAEKVIKMLRSGDPRQAVRMMDENAHVEYGDKTYHGREDAERAVKQWTDHFDKVRVVHVDVHNGTVNVDMEINHNGRVERYVVRVEVHNGRVKHLVVKSS” gave a protease stability score of 1.2.

As to “DEEELERQAQELVDAWQTNDESKIRHLVDENARVQVGDTTWKGREKAEEQVQEFKKQVDRLRVISVRVHGENIVVHVEIVHNGKHFSLTIVIEMHNGKVKHISVDPKAVEIATK”, the protease stability score worked out at 0.497.

Turning to “DEEELETMRRILKENDWETIAHNADKDVKMTVGDKTIHGRENVRHWVKKWQKNVDHIDVESIDVQGDRIDMVARNVVNGKTMKLVFHINVHNGHVQEIELRARNEKDEELLRKAEG”, the protease stability score stood at 1.3.

Take “DEEELKDVLKKFSKNDEDFFKDLADKDARAVYGDKEVHGREEMSDLWRILKEQVDHMHINHMKLQGDRIVVDFTMTINGQEYVNVQELKFQNGKLQEVVVKVTDEEQMKRLLKIEK”: the protease stability score was found to be 0.298.

“DEEELKDWLRNAREIWETGNPDQMEELADPDASIQVGDRTYHGSDEYKKWVEDMHRHADHIEVKEVSIRGDKVHIQVVINVNGRNFTFEFELRVRNGRVKQFNFDPDRMEEIKK” returned a protease stability score of 0.574.

“DEEELKHINRELVEVAKTGNPDEWRKLMRKDVTMHVGDKTYHGREKVREHAKTLRDRIDHINVRSVSATGDKVVLNFEAKVNGQTRTYQFQARVHNGRIVSAHINER”: the protease stability score was 0.006.

For the sequence “DEEELKHLMKVQTTGDPDKYEEMADKDVKAKIGDETYHGRETVLTQLRRMLTQIDHLEVKNVDTQGDKVNLRAVANYNGQELDVIYVLVVHNGRVDNMEIDARDEKVEDQLRQAMS”, the protease stability score is -0.348.

Turning to “DEEELKHVAELILKGDEKELSKMMDEDVRVHIGNKEYHGREQAEEAVKTLVDRADHFQVHDMRTSEGQIHVQLVVNINGENVNMYFVAEVHNGRIKEISARARDPREEEKFNKLLG”, the protease stability score came to 1.68.

Sequence “DEEELKKHAHNLMRAMQTGDPDKVEEYFDPDAEYTVGDQTYRGREDMREWFEEVRRQVDHNQINDVRNSENHVNVDFVLNHNGTNHRVKFKAEIHNGRAKRASITTG” showed a protease stability score of -0.271.

Sequence “DEEELKTAETNIRTGNFDDLSKQADENVNVQVGEKTIQGREEFNKVAHHLQKDVDHFEVKHVHNQGDQVNAEAVFVVDGKDLSFNMQMKMHNGRVKSVVFRATDETILRTYKEMLR” registered a protease stability score of -0.152.

The sequence “DEEELKTIIRDMQSNDEERLANLFDEDAKVDVGDDVLHGREDVTKFFRKVNKRIDHFEIKTYDVRGEEVEVTVEAVVNGQRIKFVWVLTIKNGKAKSAKLSVTDKKQKRILEKNMD” gave a protease stability score of 1.12.

With “DEEELMNRFWETMERIMEKGDEDTMRKQVDPNAKAEYGDKTVHGRHQFAKFWIEQARRADHIKFDIKSIDVKPPTIVVRLTVKFNVNGTNHKRDISIVFKVHNGRIVLHNAHEN”, the protease stability score came out at 1.02.

For the sequence “DEEELQEMIHEFVKALETGNPDDIDKNADEDAKAVYGDKEVEGREQIKHQIKQLHDAIDHLEVKRVSFDNGRAHIHVEMTVNGERFTAKITVEAHNGKIKDVQFDPRLRNAYES”, the protease stability score worked out at 0.81.

“DEEELQRWAERIVEAFTHGDPQRLSKNVDKNVKVTVGEHEYHGKEELNKILEEIRRQADRIHYKSVDVQGDRANFDMVMNVNGKNVKFTLIVRFENGHAKHLEFDPRMWRVVQR” registered a protease stability score of 1.53.

With “DEEELQSVKEYIENLQTNNESRLRKYADPNAQITVGDKVIHGMEDFQRQMEEDRRHSRISFKSVEFRYHDGKAVVHAEFTHVDNGQPDEVRVDYRFKLHNGRIKSQNVREVK”, the protease stability score was -0.331.

Sequence “DEEELRELVRNIIEQLQQNNEEELKKQMDKDARMQYGDKEWHGREDIVRHLASVAHQVDHLELESVSVDGNKAHFTFRRQVNGHDETLRAELVVRNGRVVSIKYRHN” came in with a protease stability score of -0.021.

“DEEELREMVKKWLEVVQKGDQKKAVEMYKPNGEWRMIDEEKQGQEDVEKMLRKAQEDGVEFQTRKAKVEGNKAEMHYDMKLGDETVTFTVQLVAHGGRIDRVKVKVTEEAKKLLTKG” yielded a protease stability score of 0.221.

As for “DEEELRQAMKVVKTNDPDNLRKLMDENVRVQVGNKVYHGREEAEKWLERMRKQIDHVNVRRVQIQGDRIVVEMEVTVNGKTIEATLHAKLHNGSLKSLRVEATSEKEKEKIEEANK”, the protease stability score was 0.93.

On to “DEEELSEVANNMERILREGDPDKARSLADENAKAHIGDKKYHGREQIREMIHRMRTRADKVTVNELRITNGVIKIVAEFNVNGRNIEIVVHIRVNNGKISEVNFEVRDPDQYKEIYS”, for which the protease stability score was 0.386.

Sequence “DEEELSHFLDVVRTGDFHEMAKMVDPNARINVGDKRVHGREDAETLIKEIQKRADHVEVDSYSIEGDKVRVLMRVNVNGVEVVFILVVQLNNGRIVHRQVDVTNEELEKQVRHANS” displayed a protease stability score of 0.659.

Sequence “DEEELSQVVRKVIEALRTGDPDLFQKLADPNAKASVGDKSVHGKEEISSLQKEFSDRVDEIKFTHVSFENGHATIHMELNHNGRHDKVVVKIDVENGKIKHVQIEKS” gave a protease stability score of 0.741.

In turn, “DEEELTKTLHEIIKDFVHGDSNQLRENADPNVKLKVGDKEIRGHHEVHKWAKKLRERVDSIKVKDYSATGEKAVAHVIADINGENVEITIVIQAHNGRIKLITVDPEDDKKMKQ” displayed a protease stability score of 0.279.

“DEEELTTLAEQLMDIIEQGDKKRFHQLADPNARMDVGDKRYHGREEMAKNLYDLVERVDTISVDSLSARNGRIKIDMRFKVNGQDVKQILVVRADNGTITRVSIETS” displayed a protease stability score of 0.849.

For “DEEEMDRFIKHLERNDEDRWVQMADPNVKVRIGDNTLRGREQLKKWFHRFRKRVDTYSIDSYTVHGEKIKVRAKFQVDGRNVQFSFVVVIKNGRIKSATYEARNEEDQEQDKRDLE”, the protease stability score is 1.5.

With “DEEEMEKVLQVQSTGNPDRYRKLADKDVRLVVGDTEVQGKEKVVKKVHDFHKQIDHQDYESMSAEGNRIDVLLRNVVNGQELVLRVVVRVHNGRIKEVELRARSEEEQSRFDHAWK”, the protease stability score was 0.093.

For the sequence “DEEEMKEMLEKWHEAVQKGDSDKVKKLYKPNVEWEDSDTQKQGVEVVIKMLQEVQKKGLEFQVRKAKVEGDTAQAVYDLRFGDKTVTFTVELQAQGGRVDKVRVELNEEAKKVLTKG”, the protease stability score was 1.19.

“DEEENKDVATTFVKAVEQGDPDKISHLFDENARAQIGDKEYHGREDLMRMAQEWRDRYDHIEIQDYKVHGNKVTAHFVMQHNGKRERRVMTAEWRNGQIHSMQVHSS” came in with a protease stability score of 1.37.

“DEEENKHLISLFERNNWRDMAEMADKDVKAQYGDSTIHGREQVHEVLTQLQKRADHLEIKDYNVDGNKVVVDQVINVNGVTIRAKVLMEVHNGRIKQMHVQATDNEEKKKLDKVLS” showed a protease stability score of -0.466.

The values above are taken from the NTF2 design screens of Basanta et al. (2020).
